Test results published in patent US20190106460A1 (published 2019).
Starred links: 1 amine or outer side, 2 acyl side, 3 side chain; linkers in the order of their positions; H or OH if unused. Non-standard residues stand in square brackets, D forms with d. *: point of attachment. Tyr(Me) = O-methyl-L-tyrosine, COc1ccc(C[C@H](N[*:1])C(=O)[*:2])cc1; Phe(4-NO2) = N[C@@H](Cc1ccc([N+](=O)[O-])cc1)C(=O)O; Benzenesulfonyl(4-OMe) = COc1ccc(S(=O)(=O)*)cc1; Y(Me) = COc1ccc(C[C@H](N[*:1])C(=O)[*:2])cc1; 3,4‑(MeO)2‑PhSO2 = COc1ccc(S(=O)(=O)*)cc1OC; 4‑(BuO)‑PhSO2 = CCCCOc1ccc(S(=O)(=O)*)cc1; E(OMe) = COC(=O)CC[C@H](N[*:1])C(=O)[*:2]; E(Me) = COC(=O)CC[C@H](N[*:1])C(=O)[*:2]; Phe(3-Cl) = N[C@@H](Cc1cccc(Cl)c1)C(=O)O; Phe(3-F) = N[C@@H](Cc1cccc(F)c1)C(=O)O; 1Nal = N[C@@H](Cc1cccc2ccccc12)C(=O)O; Glutaryl = O=C(CCCC(=O)[*:2])[*:1]; Suc = O=C(CCC(=O)[*:2])[*:1]; Tos = Cc1ccc(S(=O)(=O)*)cc1

Experiments:
[1] = molecular target: T1, βTrCP (tag cleaved and complexed with Skp1) (UniProt Q9Y297 175-605; P63208 1-163); assay: FP competition vs fluorescein-IκB peptide
T1 construct: Protein of the FP assay (0.035 µM); also called Beta Transducin repeat-containing protein; βTrCP/Skp1

[2] = molecular target: Skp2 (UniProt Q13309 1-424, limits assumed); assay: cell-based or functional assay
Sequence of Skp2 (Q13309 whole entry): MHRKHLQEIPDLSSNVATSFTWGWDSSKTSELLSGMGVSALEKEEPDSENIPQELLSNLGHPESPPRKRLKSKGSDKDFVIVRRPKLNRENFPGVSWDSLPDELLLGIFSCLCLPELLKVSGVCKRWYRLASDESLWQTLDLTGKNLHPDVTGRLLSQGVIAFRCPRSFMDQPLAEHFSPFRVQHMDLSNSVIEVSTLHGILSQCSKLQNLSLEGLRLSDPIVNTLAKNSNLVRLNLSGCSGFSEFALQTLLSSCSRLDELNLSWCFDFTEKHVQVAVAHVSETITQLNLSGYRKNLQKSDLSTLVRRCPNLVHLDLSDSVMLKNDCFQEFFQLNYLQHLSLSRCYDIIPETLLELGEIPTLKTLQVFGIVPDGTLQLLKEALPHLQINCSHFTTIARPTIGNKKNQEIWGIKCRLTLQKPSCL

[3] = molecular target: Fbw7 (UniProt Q969H0 263-707, limits assumed); assay: cell-based or functional assay
Sequence of Fbw7 (Q969H0 263-707 limits assumed): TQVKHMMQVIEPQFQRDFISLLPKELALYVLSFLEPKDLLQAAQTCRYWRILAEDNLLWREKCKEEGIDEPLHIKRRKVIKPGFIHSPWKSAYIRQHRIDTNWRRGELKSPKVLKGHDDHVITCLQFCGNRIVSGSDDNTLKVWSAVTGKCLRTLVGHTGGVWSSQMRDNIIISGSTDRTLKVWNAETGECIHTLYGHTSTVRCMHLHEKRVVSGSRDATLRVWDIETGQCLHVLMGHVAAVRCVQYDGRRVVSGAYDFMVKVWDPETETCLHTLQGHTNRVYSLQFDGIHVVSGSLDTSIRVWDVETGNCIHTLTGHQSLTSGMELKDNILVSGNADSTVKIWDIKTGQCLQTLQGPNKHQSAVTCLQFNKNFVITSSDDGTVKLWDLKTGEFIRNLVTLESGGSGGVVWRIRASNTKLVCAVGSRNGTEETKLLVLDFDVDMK

[4] = molecular target: T2, HisβTrCP/Skp1 and HisβTrCP/GSTSkp1 (immobilised on NTA Biacore chip) (UniProt Q9Y297 175-605; P63208 1-163); assay: SPR, Biacore T200, βTrCP/Skp1 immobilised
T2 construct: SPR: KD values from both surfaces (with or without the GST moiety) were averaged to give the apparent KD; also called βTrCP surfaces
T2 sequence (Q9Y297 175-605, chain 1 of 2): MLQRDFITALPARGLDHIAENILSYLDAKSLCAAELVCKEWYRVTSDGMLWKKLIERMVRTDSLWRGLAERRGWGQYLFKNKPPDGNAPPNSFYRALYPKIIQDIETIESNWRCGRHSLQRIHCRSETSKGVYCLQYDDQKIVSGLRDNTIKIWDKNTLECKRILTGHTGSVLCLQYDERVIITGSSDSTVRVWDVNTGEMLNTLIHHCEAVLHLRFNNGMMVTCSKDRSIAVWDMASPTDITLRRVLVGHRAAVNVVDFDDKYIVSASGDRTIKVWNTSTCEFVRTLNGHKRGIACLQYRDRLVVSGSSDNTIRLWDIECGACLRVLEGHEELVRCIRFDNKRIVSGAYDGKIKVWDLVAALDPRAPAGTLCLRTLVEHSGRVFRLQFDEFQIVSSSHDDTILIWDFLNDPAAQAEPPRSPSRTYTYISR
T2 sequence (P63208 whole entry, chain 2 of 2): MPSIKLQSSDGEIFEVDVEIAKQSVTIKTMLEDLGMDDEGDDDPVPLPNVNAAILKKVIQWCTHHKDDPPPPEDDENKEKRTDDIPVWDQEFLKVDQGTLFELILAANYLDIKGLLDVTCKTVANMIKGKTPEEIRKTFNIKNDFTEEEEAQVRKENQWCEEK
From the text: (§1) As βTrCP was His tagged, an NTA sensor chip was used. This sensor chip has a dextran surface matrix with immobilized nitrilotriacetic acid (NTA) which provides a means of capturing polyHis-tagged proteins through Nickel chelation. It was hoped that addition of Ni⁺ would orient the protein in a specific (and hopefully active) manner as it is covalently immobilised via amine coupling. Addition of EDC:NHS (N-ethyl-N′-(3-[…])-carbodiimide:N-hydroxysuccinimide) converts carboxyl groups on the dextran sensor chip surface to succinamide esters which readily form covalent bonds with primary amines. Each chip contains four flow cells (each a separate surface) which means that compounds/peptides can be passed over different forms of βTrCP and a reference surface simultaneously. If binding to βTrCP is occurring, responses should be the same (accounting for differences in density of surface etc) on each surface.
Small molecule/peptide samples to be assayed for binding to βTrCP surfaces, were provided as 10 mM stocks in 100% DMSO. All samples were tested in running buffer composed of 10 mM HEPES pH 7.4, 150 mM NaCl, 50 μM EDTA, 0.005% p20, and 1% DMSO. Serial dilutions were made using running buffer. Samples were tested over varying concentrations up to a maximum of 100 μM. Two methods of measuring the SPR response were employed: single cycle kinetics which measures the response across different concentrations of sample within a single cycle (no regeneration of surface) and a method that measures the response at a given concentration in each cycle and includes a regeneration wash after each sample injection. The regeneration solution used was the same as running buffer, but included 500 mM NaCl. Data was fitted using Biacore T200 evaluation software. KD values calculated from binding curves from both surfaces (with or without the GST moiety) were averaged to produce apparent KD's for each sample tested.

[5] = molecular target: T1, βTrCP (tag cleaved and complexed with …); assay: FP competition vs fluorescein-IκB peptide; remark: listed apart in the source
[6] = molecular target: T2, HisβTrCP/Skp1 and HisβTrCP/GSTSkp1 …; assay: SPR (Biacore T200), single cycle run up to 1e-6 M, steady-state fit of the run shown; Rmax 2.093 RU, Chi² 0.0110 RU² [A]
From the text: as §1
(§2) Small molecule/peptide samples to be assayed for binding to βTrCP surfaces, were provided as 10 mM stocks in 100% DMSO. All samples were tested in running buffer composed of 10 mM HEPES pH 7.4, 150 mM NaCl, 50 μM EDTA, 0.005% p20, and 1% DMSO. Serial dilutions were made using running buffer. […] KD values calculated from binding curves from both surfaces (with or without the GST moiety) were averaged to produce apparent KD's for each sample tested.

[7] = molecular target: T2, HisβTrCP/Skp1 and HisβTrCP/GSTSkp1 …; assay: SPR (Biacore T200), single cycle run up to 1e-6 M, steady-state fit of the run shown; Rmax 4.264 RU, Chi² 0.00601 RU² [B]
From the text: as §1, §2

[8] = molecular target: T3, βTrCP (tag cleaved and complexed with Skp1) (UniProt Q9Y297 175-605; P63208 1-163); assay: FP competition, 10 nM fluorescein-IκB peptide on βTrCP/Skp1
T3 construct: Protein of the fluorescence polarisation assay, 0.035 µM; also called Beta Transducin repeat-containing protein; βTrCP/Skp1
Procedure: Binding of the compounds to βTrCP was assessed using a fluorescence polarisation (FP) binding assay. The FP assay is an in vitro binding assay using a fluorescein-tagged IkB peptide at 10 nM to mimic substrate binding to βTrCP, and was performed as described above.
Four sequences were selected for re-synthesis and testing in the FP assay, which was performed as described above along with 4 negative controls.

[9] = molecular target: T1, βTrCP (tag cleaved and complexed with …); assay: FP competition vs fluorescein-IκB peptide; remark: listed apart in the source

B1: 4-(MeO)-PhSO2-DEGF(3F)WE-NH2 (peptide)
peptide: {Benzenesulfonyl(4-OMe)}-DEG[Phe(3-F)]WE-NH2
SMILES: COc1ccc(S(=O)(=O)N[C@@H](CC(=O)O)C(=O)N[C@@H](CCC(=O)O)C(=O)NCC(=O)N[C@@H](Cc2cccc(F)c2)C(=O)N[C@@H](Cc2c[nH]c3ccccc23)C(=O)N[C@@H](CCC(=O)O)C(N)=O)cc1
notes: also called UBP026
[1]
  IC50: 27 nM
[2]
  % Inhibition Skp2 @ 10 µM: 15%
  % Inhibition Skp2 @ (100 µM): 3%
[3]
  % Inhibition Fbw7 @ 10 µM: 0%
  % Inhibition Fbw7 @ (100 µM): 8%
[4]
  Kd: 495 nM
[5]
  IC50: 27 nM

B2: 3,4-(MeO)2-PhSO2-dEGF(3F)WE-NH2 (peptide)
peptide: {3,4‑(MeO)2‑PhSO2}-[dD]EG[Phe(3-F)]WE-NH2
SMILES: COc1ccc(S(=O)(=O)N[C@H](CC(=O)O)C(=O)N[C@@H](CCC(=O)O)C(=O)NCC(=O)N[C@@H](Cc2cccc(F)c2)C(=O)N[C@@H](Cc2c[nH]c3ccccc23)C(=O)N[C@@H](CCC(=O)O)C(N)=O)cc1OC
notes: also called UBP029
[1]
  IC50: 42 nM
[2]
  % Inhibition Skp2 @ 10 µM: 19%
  % Inhibition Skp2 @ (100 µM): 19%
[3]
  % Inhibition Fbw7 @ 10 µM: 2%
  % Inhibition Fbw7 @ (100 µM): 0%
[4]
  Kd: 603 nM
[5]
  IC50: 42 nM

## {4‑(BuO)‑PhSO2}-[dD]EG[Phe(3-F)]WE-NH2 (also called UBP030) [4-(BuO)-PhSO2-dEGF(3F)WE-NH2]
[1]
  IC50: 56 nM
[2]
  % Inhibition Skp2 @ 10 µM: 0%
  % Inhibition Skp2 @ (100 µM): 13%
[3]
  % Inhibition Fbw7 @ 10 µM: 7%
  % Inhibition Fbw7 @ (100 µM): 12%
[4]
  Kd: 767 nM
[5]
  IC50: 56 nM

## Tos-[dD]EG[Phe(3-Cl)]W[E(Me)]-NH2 (also called UBP033) [Ts-dEGF(3Cl)WE(Me)-NH2]
[1]
  IC50: 17 nM
[2]
  % Inhibition Skp2 @ 10 µM: 0%
  % Inhibition Skp2 @ (100 µM): 10%
[3]
  % Inhibition Fbw7 @ 10 µM: 7%
  % Inhibition Fbw7 @ (100 µM): 11%
[4]
  Kd: 47 nM
[6]
  Kd: 21.6 nM
[5]
  IC50: 17 nM

B3: Ts-dEGF(3Cl)WE-NH2 (peptide)
peptide: Tos-[dD]EG[Phe(3-Cl)]WE-NH2
SMILES: Cc1ccc(S(=O)(=O)N[C@H](CC(=O)O)C(=O)N[C@@H](CCC(=O)O)C(=O)NCC(=O)N[C@@H](Cc2cccc(Cl)c2)C(=O)N[C@@H](Cc2c[nH]c3ccccc23)C(=O)N[C@@H](CCC(=O)O)C(N)=O)cc1
notes: also called UBP034
[1]
  IC50: 10 nM
[2]
  % Inhibition Skp2 @ 10 µM: 0%
  % Inhibition Skp2 @ (100 µM): 0%
[3]
  % Inhibition Fbw7 @ 10 µM: 8%
  % Inhibition Fbw7 @ (100 µM): 6%
[4]
  Kd: 154 nM
[5]
  IC50: 10 nM
[7]
  Kd: 80.8 nM

## Phth-EGFFE-NH2 [Phth-EGFFE-NH2]
[8]
  IC50: 10900 nM

B4: Suc-EGFFE-NH2 (peptide)
peptide: Suc-EGFFE-NH2
SMILES: NC(=O)[C@H](CCC(=O)O)NC(=O)[C@H](Cc1ccccc1)NC(=O)[C@H](Cc1ccccc1)NC(=O)CNC(=O)[C@H](CCC(=O)O)NC(=O)CCC(=O)O
notes: also called UBP002; succ-EGFFE
[8]
  IC50: 3180 nM

## Glutaryl-EGFFE-NH2 [Ga-EGFFE-NH2]
[9]
  IC50: 65000 nM

B5: Suc-EGF-Y(Me)-E(OMe)-NH2 (peptide)
peptide: Suc-EGF[Y(Me)][E(OMe)]-NH2
SMILES: COC(=O)CC[C@H](NC(=O)[C@H](Cc1ccc(OC)cc1)NC(=O)[C@H](Cc1ccccc1)NC(=O)CNC(=O)[C@H](CCC(=O)O)NC(=O)CCC(=O)O)C(N)=O
[9]
  IC50: 71000 nM

## Suc-EG[1Nal][Phe(4-NO2)]E-NH2 [Suc-EG-1Nal-F(4NO2)-E-NH2]
[9]
  IC50: 68000 nM

## Suc-EG[1Nal][Tyr(Me)]E-NH2 [Suc-EG-1Nal-Y(Me)-E-NH2]
[9]
  IC50: 5400 nM
